Laboratory results from patent publication US20190367605A1 (AstraZeneca / MedImmune, published 2019).
Where a chain is given by its changes, count along the chain named. Values belong to the binder of their own block, whether it stands above or below them.

What was measured:
[1] = target: T1, human ASCT2 (system ASC amino acid transporter 2, SLC1A5) (human, UniProt Q15758 1-541); assay: cell-based or functional assay
T1 sequence (looked up): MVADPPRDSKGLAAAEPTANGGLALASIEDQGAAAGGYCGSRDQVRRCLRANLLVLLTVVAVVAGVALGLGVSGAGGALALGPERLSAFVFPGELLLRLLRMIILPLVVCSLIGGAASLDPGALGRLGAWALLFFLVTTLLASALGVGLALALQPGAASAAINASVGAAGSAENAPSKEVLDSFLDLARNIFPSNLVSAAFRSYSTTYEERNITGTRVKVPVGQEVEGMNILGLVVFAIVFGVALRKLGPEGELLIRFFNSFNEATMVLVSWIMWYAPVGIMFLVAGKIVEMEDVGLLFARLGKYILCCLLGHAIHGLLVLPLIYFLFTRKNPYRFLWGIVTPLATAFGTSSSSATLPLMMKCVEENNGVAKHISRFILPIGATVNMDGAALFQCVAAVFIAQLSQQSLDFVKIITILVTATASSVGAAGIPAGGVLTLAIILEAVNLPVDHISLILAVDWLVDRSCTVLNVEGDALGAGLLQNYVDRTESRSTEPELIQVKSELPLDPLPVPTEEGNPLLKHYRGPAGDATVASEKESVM

[2] = target: T2, cynomolgus monkey ASCT2 (cynomolgus monkey (Macaca fascicularis), UniProt G7PXZ3 1-542); assay: flow cytometry, titration of fluorophore-labelled antibody on CHOK1 cells stably expressing cyno ASCT2
T2 construct: whole, on cells; Present on stably transfected CHOK1 cells or endogenously on the cyno cell line CynoMK1; also called cyno ASCT2; CynoASCT2
T2 sequence: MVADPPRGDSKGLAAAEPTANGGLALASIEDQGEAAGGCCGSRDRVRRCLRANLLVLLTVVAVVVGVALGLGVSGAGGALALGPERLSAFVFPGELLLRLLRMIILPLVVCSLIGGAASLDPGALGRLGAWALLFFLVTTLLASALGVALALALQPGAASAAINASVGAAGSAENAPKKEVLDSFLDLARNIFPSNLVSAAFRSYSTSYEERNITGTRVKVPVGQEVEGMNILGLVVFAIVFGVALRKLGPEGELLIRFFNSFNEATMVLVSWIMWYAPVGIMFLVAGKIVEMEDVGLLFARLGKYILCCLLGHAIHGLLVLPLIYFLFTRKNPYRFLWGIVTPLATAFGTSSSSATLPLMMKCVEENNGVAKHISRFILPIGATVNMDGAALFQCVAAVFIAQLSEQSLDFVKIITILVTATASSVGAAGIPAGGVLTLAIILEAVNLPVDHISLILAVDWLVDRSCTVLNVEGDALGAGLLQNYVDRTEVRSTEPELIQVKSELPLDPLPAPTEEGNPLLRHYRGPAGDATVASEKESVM
Description: (§1) Human, cynomolgous monkey, and CHO-derived cell lines expressing ASCT2 were utilized to assessed binding affinity and cross reactivity of ASCT2-specific antibodies. Apparent affinities were measured by titrating fluorophore labeled antibodies.
(§2) Results for human cancer cell line Ca127 are shown in FIG. 6A; results for human cancer cell line FaDu are shown in FIG. 6B; results for human cancer cell line SSC15 are shown in FIG. 6C; results for human cancer cell line WiDr are shown in FIG. 6D; results for CHOK1 cells stably expressing human ASCT2 are shown in FIG. 6E; results for CHOK1 cells stably expressing cyno ASCT2 are shown in FIG. 6F); results for cyno cancer cell line CynoMK1 are shown in FIG. 6G; and results for mock transfected CHOK1 cells are shown in FIG. 6H.

[3] = target: T3, ASCT1 (SLC1A4) (human, UniProt P43007 1-532); assay: flow cytometry on SKMEL-2 cells after shRNA knockdown of ASCT1 (binding not ablated)
T3 construct: whole, on cells; also called ASC transporter 1; human ASCT1
T3 sequence (looked up): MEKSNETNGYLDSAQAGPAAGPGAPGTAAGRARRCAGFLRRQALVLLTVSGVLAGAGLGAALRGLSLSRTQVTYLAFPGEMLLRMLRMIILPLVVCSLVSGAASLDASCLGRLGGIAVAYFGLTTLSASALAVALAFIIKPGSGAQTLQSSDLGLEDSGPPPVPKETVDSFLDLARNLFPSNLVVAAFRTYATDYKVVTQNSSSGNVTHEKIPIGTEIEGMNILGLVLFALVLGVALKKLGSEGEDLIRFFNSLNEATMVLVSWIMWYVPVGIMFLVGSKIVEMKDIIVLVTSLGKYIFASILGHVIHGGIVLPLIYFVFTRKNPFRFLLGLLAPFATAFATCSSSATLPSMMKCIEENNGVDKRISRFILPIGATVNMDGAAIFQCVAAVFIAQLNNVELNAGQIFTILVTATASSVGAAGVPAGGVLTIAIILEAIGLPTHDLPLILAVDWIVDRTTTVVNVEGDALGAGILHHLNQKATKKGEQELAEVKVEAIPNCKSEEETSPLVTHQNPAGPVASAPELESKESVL

[4] = target: T2, cynomolgus monkey ASCT2; assay: flow cytometry, titration of fluorophore-labelled antibody on cyno cell line Cyno MK1
Description: as §1, §2

[5] = target: T1, human ASCT2 (system ASC amino acid …); assay: flow cytometry, titration of fluorophore-labelled antibody on WiDr cells
Description: as §1, §2

[6] = target: T1, human ASCT2 (system ASC amino acid …); assay: flow cytometry, titration of fluorophore-labelled antibody on SSC15 cells
Description: as §1, §2

[7] = target: T1, human ASCT2 (system ASC amino acid …); assay: flow cytometry, titration of fluorophore-labelled antibody on Cal27 cells
Description: as §1, §2

[8] = target: T1, human ASCT2 (system ASC amino acid …); assay: flow cytometry, titration of fluorophore-labelled antibody on FaDu cells
Description: as §1, §2

[9] = target: T1, human ASCT2 (system ASC amino acid …); assay: flow cytometry, titration of fluorophore-labelled antibody on CHOK1 cells stably expressing human ASCT2
Description: as §1, §2

[10] = target: T1, human ASCT2 (system ASC amino acid …); assay: binding to CHOK1 cells stably expressing human ASCT2; clones conjugated to tubulysin AZ1508 per paragraph 353
[11] = target: T1, human ASCT2 (system ASC amino acid …); assay: cell-based or functional assay; remark: listed apart in the source
[12] = target: T2, cynomolgus monkey ASCT2; assay: cell-based or functional assay
[13] = target: T2, cynomolgus monkey ASCT2; assay: binding to CHOK1 cells stably expressing cyno ASCT2; clones conjugated to tubulysin AZ1508 per paragraph 353
[14] = target: T1, human ASCT2 (system ASC amino acid …); assay: cell-based or functional assay; remark: listed apart in the source
[15] = target: T1, human ASCT2 (system ASC amino acid …); assay: flow cytometry on WiDr cells and CHO cells expressing HuASCT2
From the text: The amino acid sequences of the VH and VL domains for 17c10 were aligned to the known human germline sequences in the VBASE database, and the closest germline was identified by sequence similarity. For the VH domain, this was IgVh4-34*01; for the VL domain, it was IgKv1-5*03. For 17c10, the germlining process involved reverting 1 framework residue in the VH domain and 5 residues in the VL domain. In the VH domain, the reversion mutation was at Kabat position 82a, where threonine (T) was reverted to serine (S). In the VL domain, the mutations were at Kabat position 13, 21, 39, 70, and 76 where at Kabat position 13 threonine (T) was reverted to alanine (A); at Kabat position 21 leucine (L) was reverted to isoleucine (I); at Kabat position 39 Asparagine (N) was reverted to lysine (K); at Kabat position 70 aspartate (D) was reverted to glutamate (E), and at Kabat position 76 threonine (T) was reverted to serine (S). These changes were made by synthesizing VH and VL domains with these mutations and replacing existing VH and VL using restriction digestion and ligation. Both the germlined and original (non-germlined) 17c10 were expressed as IgGs, and their affinity to multiple ASCT2-expressing cell lines was assessed by flow cytometry.

B1: anti-ASCT2 17C10 classically conjugated to tubulysin AZ1508 (antibody, human IgG1, V domains shown)
VH: QVQLQQWGAGLLKPSETLSLTCAVYGGSFSGYYWSWIRQPPGKGLEWIGEIHHSGGANYNPSLKSRVTISVDTSKNQFSLKLTSVTAADTAVYYCARGQGKNWHYDYFDYWGQGTLVTVSS
VL: DIQMTQSPSTLSTSVGDRVTLTCRASQSIRSWLAWYQQNPGKAPKLLIYKASILKIGVPSRFSGSGSGTDFTLTITSLQPDDFATYYCQQYYSYSRTFGQGTKVEIK
modifications: tubulysin AZ1508 conjugated classically (native cysteine residues, thiol-maleimide linkage); positions not given
IC50 (ng/ml), ADC-mediated cytotoxic killing, SW48 cells, CellTiter-Glo, 72 h [1]: 46 ng/mL

EC50 [2]: 9.6 nM
binding result [3]: no binding
EC50 [4]: 6.7 nM
EC50 [5]: 7 nM
EC50 [6]: 3.6 nM
EC50 [7]: 2.8 nM
EC50 [8]: 3.8 nM
EC50 [9]: 8.6 nM
B2: anti-ASCT2 antibody 17c10 (original, non-germlined, parental) (antibody, V domains shown)
VH: B1 VH
VL: B1 VL
notes: also called 17c10 parental antibody; ASCT2 mAb 17c10

EC50 [2]: 28.4 nM
EC50 [4]: 14.8 nM
EC50 [5]: 5.8 nM
EC50 [6]: 8.8 nM
EC50 [7]: 13 nM
EC50 [8]: 6.8 nM
EC50 [9]: 8.1 nM
B3: anti-ASCT2 antibody 1e8 (original) (antibody, V domains shown)
VH: B1 VH with R38P, L45V, H52N, G56S, A57T, V71S, H104N
VL: B1 VL with T13A, N39K, I53S, I56S, T76S, Y94F
notes: also called ASCT2 mAb 1e8

EC50 [10]: 8.1 nM
EC50 [13]: 28.4 nM
B4: anti-ASCT2 antibody 1e8 conjugated to tubulysin AZ1508 (Example 4) (antibody, V domains shown)
VH: B1 VH with R38P, L45V, H52N, G56S, A57T, V71S, H104N
VL: B1 VL with T13A, N39K, I53S, I56S, T76S, Y94F
modifications: tubulysin AZ1508 conjugated; mode and site of conjugation not stated for these experiments
notes: Antibody-drug conjugate; also called 1e8 conjugated to tubulysin 1508
Cytotoxicity IC50 (ng/ml), CHOK1 cells stably expressing human ASCT2 [11]: 20.7 ng/mL
Cytotoxicity IC50 (ng/ml), CHOK1 cells stably expressing cyno ASCT2 [12]: 140 ng/mL

B5: anti-ASCT2 1E8 classically conjugated to tubulysin AZ1508 (antibody, human IgG1, V domains shown)
VH: B1 VH with R38P, L45V, H52N, G56S, A57T, V71S, H104N
VL: B1 VL with T13A, N39K, I53S, I56S, T76S, Y94F
modifications: tubulysin AZ1508 conjugated classically (native cysteine residues, thiol-maleimide linkage); positions not given
IC50 (ng/ml), ADC-mediated cytotoxic killing, SW48 cells, CellTiter-Glo, 72 h [1]: 34.8 ng/mL

EC50 [10]: 8.6 nM
EC50 [13]: 9.6 nM
B6: anti-ASCT2 antibody 17c10 conjugated to tubulysin AZ1508 (17c10-AZ1508, Example 4) (antibody, V domains shown)
VH: B1 VH
VL: B1 VL
modifications: tubulysin AZ1508 conjugated; mode and site of conjugation not stated for these experiments
notes: Antibody-drug conjugate; also called 17c10-ADC; ASCT2-ADC
Cytotoxicity IC50 (ng/ml), CHOK1 cells stably expressing human ASCT2 [11]: 5.53 ng/mL
Cytotoxicity IC50 (ng/ml), CHOK1 cells stably expressing cyno ASCT2 [12]: 8.59 ng/mL
IC50 (ng/ml), cytotoxic killing of SKMEL-2 cells with ASCT1-shRNA1 [14]: 7.59 ng/mL
IC50 (ng/ml), cytotoxic killing of SKMEL-2 cells with ASCT1-shRNA2 [14]: 4.96 ng/mL
IC50 (ng/ml), cytotoxic killing of SKMEL-2 cells with ASCT2-shRNA [14]: 205 ng/mL
IC50 (ng/ml), cytotoxic killing of SKMEL-2 cells with NTshRNA [14]: 14.3 ng/mL

binding result [15]: binds
B7: germlined 17c10 antibody (antibody, V domains shown)
VH: B1 VH with T83S
VL: B1 VL with T13A, L21I, N39K, D70E, T76S
notes: also called 17c10 germlined antibody
